According to patent US12383631 (BRIGHT PEAK THERAPEUTICS, dated 2025):

B2: recombinant Human Fc gamma RI/CD64 Protein (R&D systems, 1257-FC-050) (receptor)
chain: QVDTTKAVITLQPPWVSVFQEETVTLHCEVLHLPGSSSTQWFLNGTATQTSTPSYRITSASVNDSGEYRCQRGLSGRSDPIQLEIHRGWLLLQVSSRVFTEGEPLALRCHAWKDKLVYNVLYYRNGKAFKFFHWNSNLTILKTNISHNGTYHCSGMGKHRYTSAGISVTVKELFPAPVLNASVTSPLLEGNLVTLSCETKLLLQRPGLQLYFSFYMGSKTLRGRNTSSEYQILTARREDSGLYWCEAATEDGNVLKRSPELELQVLGLQLPTP
notes: detected with an anti-His antibody; tag not described; also called FcγRI/CD64; human Fc gamma receptor I

Tests used:
[1] = target: B2; test: ELISA; antibody coated, receptor titrated, anti-His-HRP
Protocol: (§1) The interaction of the unmodified and of conjugated antibodies with human Fc gamma receptors I (FcγRI/CD64), with human Fc gamma receptors IIa (FcγRIIa/CD32a), with inhibitory human Fc gamma receptors IIb (FcγRIIb/CD32b), and with human Fc gamma receptors III FcγRIIIa/CD16 were measured by ELISA.
(§2) Briefly, Corning high-binding half-area plates (Fisher Scientific, Reinach, Switzerland) were coated overnight at 4° C. with 25 μl of unmodified and of conjugated anti-PD1 antibodies at 2.5 μg/ml in PBS. Plates were then washed four times with 100 μl of PBS-0.02% Tween20. Plates surfaces were blocked with 25 μl of PBS-0.02% Tween20-1% BSA at 37° C. during 1 h. Plates were then washed four times with 100 μl of PBS-0.02% Tween20. Then twenty-five microliters of either recombinant Human Fc gamma RI/CD64 Protein (R&D systems, 1257-FC-050, CF), recombinant Human Fc gamma RIIA/CD32a (H167) Protein (R&D systems, 9595-CD-050, CF), recombinant Human Fc gamma RIIB/CD32b Avi-tag Protein (R&D systems, AVI1875-050, CF), or recombinant Human Fc gamma RIIIA/CD16a Protein (R&D systems, 4325-FC-050; CF) were added in five-fold serial dilutions ranging from 1000 nM to 0.001 nM into PBS-0.02% Tween20-0.1% BSA and incubated at 37° C. during 2 h. Plates were then washed four times with 100 μl of PBS-0.02% Tween20. Twenty-five microliters of a 1/500 HRP-anti-His antibody in PBS—0.02% Tween20-0.1% BSA (R&D systems, anti-HIS—HRP Ab, #MAB050H) were added to each well and plates were incubated at Room Temperature during 1 h. Plates were then washed four times with 100 μl of PBS-0.02% Tween20. Fifty microliters of TMB substrate reagent (#CL07, Merck, Buchs, Switzerland) were added to each well and incubated at 37° C. during 5 min. After 5 min at 37° C., Horseradish peroxidase reaction was stopped by adding 50 μl/well of 0.5M H2SO4 stop solution. ELISA signal was then measured at 450 nm on an EnSpire plate reader from Perkin Elmer (Schwerzenbach, Switzerland). Binding Affinity of Reference Antibodies and Immunocytokines with Human Fc Gamma Receptors as Measured by ELISA

[2] = target: T1, recombinant Human Fc gamma RIIIA/CD16a Protein (R&D systems, 4325-FC-050) (human, UniProt P08637 17-208); test: as above
T1 construct: detected with an anti-His antibody; tag and allotype not described; also called FcγRIIIa (CD16)
Protocol: as §1, §2

[3] = target: T2, recombinant biotinylated human FcRn (human, UniProt P55899 24-297; P61769 21-119, limits assumed, biotinylated); test: AlphaLISA competition at pH 6; competitor: human IgG on acceptor beads
T2 construct: also called human neonatal Fc receptor (FcRn)
Protocol: The interaction of the unmodified and of conjugated anti-PD1 antibodies with the human neonatal Fc receptor (FcRn) at pH 6 was measured using the AlphaLISA® Human FcRn Binding Kit (AL3095C) from Perkin Elmer (Schwerzenbach, Switzerland).
After 90 min at 23° C. in the dark, AlphaLISA® signal was measured on an EnSpire plate reader (Excitation at 680 nm, Emission at 615 nm) from Perkin Elmer (Schwerzenbach, Switzerland). Binding Affinity of Reference Antibodies and Immunocytokines with the Human Neonatal Fc Receptor as Measured by AlphaLISA

[4] = target: T3, Composition B (Atezolizumab/Tecentriq conjugated to IL-18 polypeptide of SEQ ID NO: 30) (human, UniProt P0DOX5 2-449 = IgG part; P0DOX7 1-214; Q14116 37-193, chemical linker to the antibody; site not stated for this composition; chemical linker to IL-18; site not stated for this composition); test: ELISA; immunocytokine coated, receptor titrated, anti-His-HRP
T3 construct: immunocytokine
Protocol: as §1
Briefly, Corning high-binding half-area plates (Fisher Scientific, Reinach, Switzerland) were coated overnight at 4° C. with 25 μl of unmodified and of conjugated anti-PD1 antibodies at 2.5 μg/ml in PBS. Plates were then washed four times with 100 μl of PBS-0.02% Tween20. Plates surfaces were blocked with 25 μl of PBS-0.02% Tween20-1% BSA at 37° C. during 1 h. Plates were then washed four times with 100 μl of PBS-0.02% Tween20. […] ELISA signal was then measured at 450 nm on an EnSpire plate reader from Perkin Elmer (Schwerzenbach, Switzerland). Binding Affinity of Reference Antibodies and Immunocytokines with Human Fc Gamma Receptors as Measured by ELISA

B1: Pembrolizumab/Keytruda (antibody, human IgG4 S228P, kappa)
heavy: not shown
light: EIVLTQSPATLSLSPGERATLSCRASKGVSTSGYSYLHWYQQKPGQAPRLLIYLASYLESGVPARFSGSGSGTDFTLTISSLEPEDFAVYYCQHSRDLPLTFGGGTKVEIKRTVAAPSVFIFPPSDEQLKSGTASVVCLLNNFYPREAKVQWKVDNALQSGNSQESVTEQDSKDSTYSLSSTLTLSKADYEKHKVYACEVTHQGLSSPVTKSFNRGEC
notes: also called Lambrolizumab; MK-3475
- Kd [1]: 0.593 nM
- Kd [2]: 1660 nM
- Kd [3]: 7.45 nM

Binder: B2
- Kd [4]: 10.8 nM

B3: recombinant Human Fc gamma RIIA/CD32a (H167) Protein (R&D systems, 9595-CD-050) (receptor)
chain: AAPPKAVLKLEPPWINVLQEDSVTLTCQGARSPESDSIQWFHNGNLIPTHTQPSYRFKANNNDSGEYTCQTGQTSLSDPVHLTVLSEWLVLQTPHLEFQEGETIMLRCHSWKDKPLVKVTFFQNGKSQKFSHLDPTFSIPQANHSHSGDYHCTGNIGYTLFSSKPVTITVQVPSMGSSSPMGI
notes: detected with an anti-His antibody; tag not described; also called FcγRIIa (CD32a)
- Kd [4]: 1740 nM

B4: Avelumab/Bavencio (antibody, human IgG1, lambda)
heavy: not shown
light: QSALTQPASVSGSPGQSITISCTGTSSDVGGYNYVSWYQQHPGKAPKLMIYDVSNRPSGVSNRFSGSKSGNTASLTISGLQAEDEADYYCSSYTSSSTRVFGTGTKVTVLGQPKANPTVTLFPPSSEELQANKATLVCLISDFYPGAVTVAWKADGSPVKAGVETTKPSKQSNNKYAASSYLSLTPEQWKSHRSYSCQVTHEGSTVEKTVAPTECS
notes: also called MSB-0010718C
- Kd [3]: 5.36 nM
